The results in this text go back to the supplement of paper PMC9112550, “Optimization of the antimicrobial peptide Bac7 by deep mutational scanning” (BMC Biology, 2022).
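Note: peptides expressed intracellularly from a pBAD plasmid library in pooled LB shake-flask culture, induced with 0.3% L-arabinose, DNA abundance read by NGS, three biological replicates, DESeq2 with apeglm shrinkage.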

The data set relates to Escherichia coli TOP10. The data set is described as follows: shrunken log2 fold change of peptide-encoding DNA abundance (4.5 h post-induction vs induction); higher = less antimicrobial activity (less host growth inhibition). To be noted: time post-induction: 4.5 h; library: site-saturation at positions 5, 18, 19, 20.
For RRIRHRPPRLPRPRPRPRIMPRP, the “shrunken log2 fold change” value is -0.577.
The value for RRIRTRPPRLPRPRPRPYCLPRP was -0.999; that for RRIRYRPPRLPRPRPRPWTLPRP was -0.0151; that for RRIRRRPPRLPRPRPRPQFKPRP was -0.145.
In the case of RRIRWRPPRLPRPRPRPSLRPRP, the “shrunken log2 fold change” value was determined as 0.0372.
As to RRIRRRPPRLPRPRPRPLEVPRP, the “shrunken log2 fold change” value worked out at 0.197.
The result for RRIRRRPPRLPRPRPRPSLAPRP reads 0.89; that for RRIRRRPPRLPRPRPRPNSYPRP, -0.116.
Consider RRIRKRPPRLPRPRPRPIQTPRP, for which the “shrunken log2 fold change” value was 0.0355.
Take RRIRNRPPRLPRPRPRPNNCPRP: the “shrunken log2 fold change” value is -0.0864.
On to RRIRQRPPRLPRPRPRPIPQPRP, for which the “shrunken log2 fold change” value is -0.0321.
RRIRLRPPRLPRPRPRPKTCPRP: the “shrunken log2 fold change” value turned out to be 0.118.
The result for RRIRKRPPRLPRPRPRPDHHPRP reads -0.37; that for RRIRGRPPRLPRPRPRPNNRPRP, -0.112.
Take RRIRIRPPRLPRPRPRPPTWPRP: the “shrunken log2 fold change” value is -0.101.
The value for RRIRYRPPRLPRPRPRPPGWPRP was 0.167; that for RRIRLRPPRLPRPRPRPCPQPRP was -0.391.
As for RRIRFRPPRLPRPRPRPTQKPRP, the “shrunken log2 fold change” value worked out at 0.94.
On to RRIRARPPRLPRPRPRPTQGPRP, for which the “shrunken log2 fold change” value was 0.905.
As for RRIRIRPPRLPRPRPRPQYMPRP, the “shrunken log2 fold change” value was -1.02.
Regarding RRIRKRPPRLPRPRPRPGTTPRP, the “shrunken log2 fold change” value was 0.157.
The value for RRIRTRPPRLPRPRPRPSMFPRP was -0.46; that for RRIRCRPPRLPRPRPRPLAAPRP was 0.351; that for RRIRRRPPRLPRPRPRPKWWPRP was 0.579.
The result for RRIRWRPPRLPRPRPRPTCSPRP reads 0.0967; that for RRIRWRPPRLPRPRPRPLWLPRP, 0.202.
The value for RRIRPRPPRLPRPRPRPAAIPRP was 0.0249; that for RRIRVRPPRLPRPRPRPSMSPRP was -0.147; that for RRIRVRPPRLPRPRPRPNIPPRP was -0.463.
For RRIRNRPPRLPRPRPRPTMFPRP, the “shrunken log2 fold change” value was -0.247.
For RRIRTRPPRLPRPRPRPICFPRP, the “shrunken log2 fold change” value was -0.583.
The value for RRIRSRPPRLPRPRPRPVCGPRP was 0.548; that for RRIRKRPPRLPRPRPRPEYPPRP was 0.0134.
As for RRIRNRPPRLPRPRPRPITKPRP, the “shrunken log2 fold change” value was -0.113.
The value for RRIRHRPPRLPRPRPRPQYWPRP was -0.806.
RRIRMRPPRLPRPRPRPDLDPRP: the “shrunken log2 fold change” value stood at 2.65.
Take RRIRERPPRLPRPRPRPALSPRP: the “shrunken log2 fold change” value was determined as 0.15.
With RRIRFRPPRLPRPRPRPLNWPRP, the “shrunken log2 fold change” value was -0.109.
The value for RRIRDRPPRLPRPRPRPMYHPRP was 0.0212; that for RRIRPRPPRLPRPRPRPMCTPRP was 0.108.
For the sequence RRIRPRPPRLPRPRPRPIGNPRP, the “shrunken log2 fold change” value is -0.0419.
The value for RRIRQRPPRLPRPRPRPFNEPRP was -0.03.
The result for RRIRDRPPRLPRPRPRPKFVPRP reads 0.0202.
The value for RRIRYRPPRLPRPRPRPEAMPRP was -0.0891; that for RRIRPRPPRLPRPRPRPPLRPRP was 0.336; that for RRIRARPPRLPRPRPRPGVDPRP was 0.664.
On to RRIRCRPPRLPRPRPRPYMPPRP, for which the “shrunken log2 fold change” value is -0.404.
The value for RRIRTRPPRLPRPRPRPAIWPRP was 0.238; that for RRIRYRPPRLPRPRPRPFHWPRP was 0.0011.
As for RRIRWRPPRLPRPRPRPGRGPRP, the “shrunken log2 fold change” value stood at 0.643.
The result for RRIRQRPPRLPRPRPRPTNKPRP reads -0.579.
Turning to RRIRHRPPRLPRPRPRPMNYPRP, the “shrunken log2 fold change” value is -0.316.
The value for RRIRSRPPRLPRPRPRPWYDPRP was -0.511; that for RRIRMRPPRLPRPRPRPHHQPRP was -0.526; that for RRIRQRPPRLPRPRPRPFMFPRP was -0.144.
The value for RRIRSRPPRLPRPRPRPNYAPRP was -0.327; that for RRIRRRPPRLPRPRPRPICFPRP was 0.496.
Take RRIRIRPPRLPRPRPRPRQWPRP: the “shrunken log2 fold change” value was 0.159.
The value for RRIRQRPPRLPRPRPRPDPFPRP was -0.401; that for RRIRHRPPRLPRPRPRPQICPRP was 0.00386; that for RRIRQRPPRLPRPRPRPNPGPRP was -0.205.
The result for RRIRRRPPRLPRPRPRPHFWPRP reads 0.51; that for RRIRMRPPRLPRPRPRPEIRPRP, -0.0241.
On to RRIRLRPPRLPRPRPRPSITPRP, for which the “shrunken log2 fold change” value was -0.436.
The value for RRIRRRPPRLPRPRPRPNKQPRP was -0.00565.
The result for RRIRIRPPRLPRPRPRPLTKPRP reads -0.94; that for RRIRPRPPRLPRPRPRPCWSPRP, 0.0606.
Regarding RRIRCRPPRLPRPRPRPHYEPRP, the “shrunken log2 fold change” value is -0.442.
In the case of RRIRNRPPRLPRPRPRPWILPRP, the “shrunken log2 fold change” value was -0.146.
The result for RRIRDRPPRLPRPRPRPHSGPRP reads -0.0339.
The value for RRIRQRPPRLPRPRPRPEENPRP was 0.00965.
RRIRKRPPRLPRPRPRPRWEPRP: the “shrunken log2 fold change” value was determined as 0.0207.
The result for RRIRARPPRLPRPRPRPRMMPRP reads 0.229.
For RRIRTRPPRLPRPRPRPIRDPRP, the “shrunken log2 fold change” value is -0.288.
The result for RRIRPRPPRLPRPRPRPKKCPRP reads -0.352; that for RRIRFRPPRLPRPRPRPDLMPRP, -0.114; that for RRIRARPPRLPRPRPRPSQPPRP, -0.0248.
With RRIRGRPPRLPRPRPRPVGNPRP, the “shrunken log2 fold change” value is 0.204.
Regarding RRIRFRPPRLPRPRPRPPLIPRP, the “shrunken log2 fold change” value was -0.182.
The result for RRIRQRPPRLPRPRPRPRAKPRP reads 0.0777; that for RRIRARPPRLPRPRPRPTPLPRP, 0.601.
On to RRIRDRPPRLPRPRPRPTQNPRP, for which the “shrunken log2 fold change” value was 0.789.
The result for RRIRYRPPRLPRPRPRPRMHPRP reads -0.156.
The result for RRIRWRPPRLPRPRPRPPMLPRP reads 0.0923; that for RRIRIRPPRLPRPRPRPAILPRP, 0.089.
The value for RRIRTRPPRLPRPRPRPQEHPRP was -0.0662; that for RRIRARPPRLPRPRPRPIDVPRP was -0.641.
RRIRVRPPRLPRPRPRPKAIPRP: the “shrunken log2 fold change” value is -0.0609.
Regarding RRIRGRPPRLPRPRPRPWWLPRP, the “shrunken log2 fold change” value was 0.0131.
The value for RRIRFRPPRLPRPRPRPWTCPRP was -0.126; that for RRIRARPPRLPRPRPRPWPPPRP was 0.887.
As for RRIRKRPPRLPRPRPRPMFAPRP, the “shrunken log2 fold change” value was found to be 0.485.
RRIRDRPPRLPRPRPRPAFVPRP: the “shrunken log2 fold change” value is -0.114.
For RRIRDRPPRLPRPRPRPNWNPRP, the “shrunken log2 fold change” value is -0.1.
Turning to RRIRVRPPRLPRPRPRPLVSPRP, the “shrunken log2 fold change” value is 0.339.
The value for RRIRCRPPRLPRPRPRPPDCPRP was 0.177; that for RRIRSRPPRLPRPRPRPTCAPRP was 0.301.
The value for RRIRTRPPRLPRPRPRPMMFPRP was -0.0404; that for RRIRLRPPRLPRPRPRPKQFPRP was 0.0426; that for RRIRVRPPRLPRPRPRPSSTPRP was -0.398.
RRIRERPPRLPRPRPRPHMCPRP: the “shrunken log2 fold change” value was -0.0653.
The result for RRIRMRPPRLPRPRPRPLQKPRP reads 1.02.
The value for RRIRQRPPRLPRPRPRPGCKPRP was -0.0467; that for RRIRLRPPRLPRPRPRPPCCPRP was -0.0934; that for RRIRFRPPRLPRPRPRPFIYPRP was -0.714.
Regarding RRIRYRPPRLPRPRPRPVRLPRP, the “shrunken log2 fold change” value was -0.0236.
For the sequence RRIRWRPPRLPRPRPRPAMNPRP, the “shrunken log2 fold change” value was -0.326.
The result for RRIRHRPPRLPRPRPRPVLWPRP reads 0.234.
Turning to RRIRFRPPRLPRPRPRPRILPRP, the “shrunken log2 fold change” value worked out at 0.0716.
For the sequence RRIRRRPPRLPRPRPRPDMMPRP, the “shrunken log2 fold change” value was -0.137.
The result for RRIRNRPPRLPRPRPRPGAKPRP reads 0.362.
The value for RRIRCRPPRLPRPRPRPMFGPRP was -0.556; that for RRIRMRPPRLPRPRPRPPHVPRP was 0.865; that for RRIRCRPPRLPRPRPRPAFCPRP was 0.172.
The value for RRIRQRPPRLPRPRPRPRMQPRP was -0.0113; that for RRIRLRPPRLPRPRPRPPIQPRP was 0.174.
With RRIRERPPRLPRPRPRPTDAPRP, the “shrunken log2 fold change” value amounted to 0.0786.
As for RRIRLRPPRLPRPRPRPCCVPRP, the “shrunken log2 fold change” value came to 0.0472.
The result for RRIRYRPPRLPRPRPRPSGDPRP reads -0.514; that for RRIRIRPPRLPRPRPRPVEWPRP, 0.0101; that for RRIRRRPPRLPRPRPRPCRCPRP, -0.00341.
Turning to RRIRFRPPRLPRPRPRPEEAPRP, the “shrunken log2 fold change” value was 0.253.
The result for RRIRLRPPRLPRPRPRPYPSPRP reads 0.085; that for RRIRSRPPRLPRPRPRPVGRPRP, 0.65; that for RRIRSRPPRLPRPRPRPQPLPRP, 0.256.
